We go through two substances from patent US20030086932A1.

Experiment [1] has as its target murine CTLA-4 on murine T cells (murine) (UniProt P09793). The experiment in a line: cell-based or functional assay.
The target of experiment [2] is murine CD28 on murine T cells (murine) (UniProt P31041). The experiment in a line: cell-based or functional assay.
UniProt P31041, sequence (P31041 20-218): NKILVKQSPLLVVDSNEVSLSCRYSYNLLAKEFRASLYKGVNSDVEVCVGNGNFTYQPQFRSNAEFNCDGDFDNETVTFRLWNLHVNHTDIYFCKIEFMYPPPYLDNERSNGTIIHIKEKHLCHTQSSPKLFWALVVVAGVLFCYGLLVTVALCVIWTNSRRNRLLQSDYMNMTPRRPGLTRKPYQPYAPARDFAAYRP

UniProt P09793, sequence (P09793 36-223): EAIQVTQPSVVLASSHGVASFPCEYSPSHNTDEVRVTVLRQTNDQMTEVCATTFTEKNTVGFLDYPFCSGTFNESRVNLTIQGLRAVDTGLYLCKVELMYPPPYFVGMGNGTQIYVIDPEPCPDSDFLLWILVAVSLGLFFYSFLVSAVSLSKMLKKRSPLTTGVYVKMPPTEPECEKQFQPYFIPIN

As to “mem4F10scFv (surface-linked anti-murine CTLA-4 scFv derived from hamster mAb UC10-4F10, anchored by a murine B7-1 derived motif, expressed on transiently transfected 293 cells) (from UniProt Q00609 247-302)”, in experiment [1], the reduction in IL-2 production of pre-activated T cells, with combined mem2C11 and memPVIscFvs worked out at 69%; the reduction in IL-2 production of pre-activated T cells, with mem2C11 scFv alone turned out to be 67%; the reduction in intensity of the tyrosine-phosphorylated LAT band (photodensitometry, against control scFv) stood at 35%; the reduction in intensity of the tyrosine-phosphorylated p23 TCR band (photodensitometry, against control scFv) was found to be 85%. Moreover, in experiment [1], the reduction in proliferation of pre-activated T cells, with combined mem2C11 and memPVIscFvs is 66%; the reduction in proliferation of pre-activated T cells, with mem2C11 scFv alone stood at 80%.
Regarding “memPVIscFv (surface-linked anti-murine CD28 scFv derived from hamster mAb PV-1, GPI anchored, expressed on transiently transfected 293 cells)”, the proliferation and cytokine production of pre-activated T cells (increase over mem2C11scFv alone) in experiment [2] came to 10 fold.
